This note sets out measurements from the nanobody polyreactivity screen of Harvey et al. (2022).

The series is described as follows: yeast display, Sf9 membrane polyspecificity reagent, FACS + sequencing; frameworks hold sequencing errors. In outline: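 Galactose induction of a Saccharomyces cerevisiae BJ5465 synthetic nanobody display library ran 36–48 hours. The cells were then stained for 1 hour at 4 °C with 10% biotinylated, detergent-solubilized Sf9 membrane reagent, pulled down on streptavidin microbeads and FACS-sorted into low and high (top ~1%) gates on expression and reagent-binding fluorescence. Labels for polyreactivity follow the gate of origin.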
Regarding “QVQLVESGGGLVQAGGSLRLSCAASGIIFWLYTMGWYRQAPGKERELVAAITSGGSTYYADSVKGRFTISRDNAKNTVYLQMNSLKPEDTAVYDCAAVPRYRRWKYDYWGQGTQVTVSS”, the “polyreactivity (PSR sort gate)” value is reported as “high polyreactivity”.

As for “QVQLVESGGGLVQAGGSLRLSCAASGIIFWQYAMGWYRQAPGKERELVAAISRSGGNTYYADSVKGRFTISRDNAKNTVYLQMNSLKPEDTAVYYCNARRYLRGYGYGYWGQGTQVTVSS”, the “polyreactivity (PSR sort gate)” value is recorded as “high polyreactivity”. For the sequence “QVQLVESGGGLVQAGGSLRLSCAASGIIFWYYAMGWYRQAPGKERELVAAISSGGSTTYADSVKGRFTISRDNAKNTVYLQMKSLKPEDTAVYYCAAVWLSLFKGWVDTHEYDYWGQGTQVTVSS”, the “polyreactivity (PSR sort gate)” value is reported as “low polyreactivity”.

Regarding “QVQLVESGGGLVQAGGSLRLSCAASGIIFYDNAMGWYRQAPGKERALVAALTWTGSSTYYADSVKGRFTISRDNAKNTVYLQMNSLKPEDTAVSYCNARASYGHQGRLGYARLYYWGQGTQVTVSS”, the “polyreactivity (PSR sort gate)” value is recorded as “high polyreactivity”. The result for “QVQLVESGGGLVQAGGSLRLSCAASGIIFYDNAMGWYRQAPGKERELVATINYSGDSTYYADSVKGRFTISRDNAKNTVYLQMNSLKPADTAVYYCATDGAWQYYWVYSHEYWGQGTQVTVSS” reads “low polyreactivity”. With “QVQLVESGGGLVQAGGSLRLSCAASGIIFYGNAMGWYRQAPGKERELVAAISWSGSSTYYADSVKGRFTISRDNAKNTVYLQMNSLKPEDTAVYYCAADIPYQFVRDVYYWGQGTQVTLSS”, the “polyreactivity (PSR sort gate)” value is “high polyreactivity”. The result for “QVQLVESGGGLVQAGGSLRLSCAASGIIFYGNAMGWYRQAPGKERELVARITGSDGRTYYADSVKGRFTISRDNAKNTVYLQMNSLKPEDTAVYYCNADRVRTAVYSYVYAYGIMNYWGQGTQVTVSS” reads “low polyreactivity”. The result for “QVQLVESGGGLVQAGGSLRLSCAASGIIFYGYAMGWYRQAPGKERELVAAIDSGVSTNYADSVKGRFTISRDNAKNTVYLQMNSLKPEDTAVYYCAVQPWTRDNGYDYWGQGTQVTVSS” reads “low polyreactivity”; that for “QVQLVESGGGLVQAGGSLRLSCAASGIIFYGYAMGWYRQAPGKERELVAAISRSGGSTYYADSVKGRFTISRDNAKNTVYLQMNSLKPEDTAVYYCAAVAYPGKGNRGNYDYWGQGTQVTVSS”, “high polyreactivity”.

Consider “QVQLVESGGGLVQAGGSLRLSCAASGIIFYHNALGWYRQAPGKERELVASITEIGGSTYYADSVKGRFTISRDNEKNTVYLQMNSLKPEDTAVYYCARDWRNKWFGYWGLGTQVTVSS”, for which the “polyreactivity (PSR sort gate)” value is “low polyreactivity”.

Turning to “QVQLVESGGGLVQAGGSLRLSCAASGIIFYHNAMGWYRQAPGKERELVASITEIGGSTYYADSVKGRFTISRDNAKNTVYILMNSLKPEDTAVYYCAAGTLTSFSRYDYWGQGTQVTVSS”, the “polyreactivity (PSR sort gate)” value was “low polyreactivity”. In the case of “QVQLVESGGGLVQAGGSLRLSCAASGIIFYINAMGWYRQAPGKERELFADISSGDRTYYADSVKGRFTISRDNAKNTVYLQMNSLKPEDTAVYYCAAESYSGFVAGHTSLDDYWGQGTQVTVSS”, the “polyreactivity (PSR sort gate)” value was “low polyreactivity”. “QVQLVESGGGLVQAGGSLRLSCAASGIIFYIYAMGWYRQAPGKETELVASISFSGTSTYYADSVKGRFTISRDNAKNTVYLQLHSLKPEDTAVYYCNAQTNRPWGWPIGYDYWGQGTQVTVSS”: the “polyreactivity (PSR sort gate)” value is listed as “low polyreactivity”. Take “QVQLVESGGGLVQAGGSLRLSCAASGIIFYKFAMGWYRQAPGKERELVASISRRGGNTYYADSVKGRCTISRDNAKNTVYLQMNSLKPEDTAVYDSAAPKRSNEPYDYWGQGTQVTVSS”: the “polyreactivity (PSR sort gate)” value is “high polyreactivity”. Take “QVQLVESGGGLVQAGGSLRLSCAASGIIFYKNDMGWYRQAPGKERELVAAINRSGGRTYYADSVKGRFTISRDNAKNTVYLQMNSLKPEDTAVYYCATDKVSHRRYDYWGQGTLVTVSS”: the “polyreactivity (PSR sort gate)” value was “high polyreactivity”.

Consider “QVQLVESGGGLVQAGGSLRLSCAASGIIFYKYAMGWYRQAPGKERELVAAITSGGGRTYYADSVKGRFTISRDNAKNTVYLQMNSLKPEDTAVYYCNADTYSAGDYWGQGTQVTVSS”, for which the “polyreactivity (PSR sort gate)” value is recorded as “high polyreactivity”. For “QVQLVESGGGLVQAGGSLRLSCAASGIIFYPYAMGWYIQAPGKERELVAGISSSGGSTYYADSVKGRFTISRDNAKNTVYLQMNSLKPEDTAVYYCAVGGERGARIGSNHRGSRYDYWGQGTQVTVSS”, the “polyreactivity (PSR sort gate)” value is reported as “high polyreactivity”. To “QVQLVESGGGLVQAGGSLRLSCAASGIIFYPYAMGWYRQAPGKERELVAAISIGGGSTYYADSVKGRFTISRDYAKNTVYLQMNSLKPEDTAVYYFAAGTPYGILGFYYWGQGTQVTVSS” belongs “low polyreactivity”; to “QVQLVESGGGLVQAGGSLRLSCAASGIIFYPYAMGWYRQAPGKERELVADITSGGGTNYADSVKGRFTISRDNAKNTVYLHMNSLKREDTAVYYWAAEVRGYHWGTYYEFYYWGQGTQVTVSS”, “low polyreactivity”. The result for “QVQLVESGGGLVQAGGSLRLSCAASGIIFYRNTMGWYRQAPGKERELVAAIRRGGNTYYADSVKGRFTISRDNAKNTVYLQMNSLKPEDTAVYYCAAEDYNGRQYYHKMDYWGQGTQVTVSS” reads “high polyreactivity”; that for “QVQLVESGGGLVQAGGSLRLSCAASGIIFYRYAMGWYRQAPAKERELVAAISRSGGSTYYADSVKGRFTISRDNAKNTVYLQMNSLKPEDTAVYYCAARVRTNYYGSYYYWGQGTQVTVSS”, “high polyreactivity”; that for “QVQLVESGGGLVQAGGSLRLSCAASGIIFYRYAMGWYRQAPGKERELVAVISRSGCSTYYADSVKGRFTISRDNAKNTVYLQMNSLKPEDTAVYYSAAGRRYDGTRHDYWGQGTQVTVSS”, “high polyreactivity”.

“QVQLVESGGGLVQAGGSLRLSCAASGIIFYSYAMGWYRQAPGKERELVAAISNNGGSTYADSVKGRFTISRDNAKNTVYLQMNSLKPEDTAVYYCAADPTGGVGFDGYYWGQGTQVTVSS”: the “polyreactivity (PSR sort gate)” value was “low polyreactivity”.

“QVQLVESGGGLVQAGGSLRLSCAASGIIFYWNAMGWYRHAPGKERELVAGITRGGSTYYADSVKGRFTISRDNAKNTVYLQMNSLKPEDTAVYYCAKRHASRRVSYSRYDYWGQGTQVTVSS”: the “polyreactivity (PSR sort gate)” value was “high polyreactivity”. On to “QVQLVESGGGLVQAGGSLRLSCAASGIIFYWYAMGRYRQAPGKERELVATINSTGGSTNYADSVKVRFTISRDNAKNTVYLQMNSLKPEDTAVYYCAKDWNDDQHSWDTPFDYWGQGTQVTVSS”, for which the “polyreactivity (PSR sort gate)” value is “low polyreactivity”. To “QVQLVESGGGLVQAGGSLRLSCAASGIIFYYYAMGWYRHAPGKERELVAAISTSGTRTFYADSVKGRFTISRDNAKNTVYLQMNCLKPEDTAVYYCAARIYKPQRSSSLYRTSGYWGQGTQVTVSS” belongs “high polyreactivity”; to “QVQLVESGGGLVQAGGSLRLSCAASGIIFYYYAMGWYRQAPGKERELVAAISWSGGSTYYADSVKGRFTISRDNAKNTVYLQMNSLKPDDTAVYYCAAAFSPGWWSRHTYDYDYWGQGTQVTVSS”, “high polyreactivity”; to “QVQLVESGGGLVQAGGSLRLSCAASGIIFYYYAMGWYRQAPGKERELVAAISWSGGSTYYADSVKGRFTISRDNAKNTVYLQMNSLKPEDTAVYYCAAAFSPGWWSRHTYDYDYWGQGTQVTVSS”, “high polyreactivity”. The result for “QVQLVESGGGLVQAGGSLRLSCAASGIIFYYYVMGCYRQAPGKERELVAAISRSGGRTRYADSVKGRFTISRDNAKNTVYLQMNSLKPEDTAVYYCAAVGSVNYDADFDYWGQGTQVTVSS” reads “high polyreactivity”; that for “QVQLVESGGGLVQAGGSLRLSCAASGIIFYYYVMGWDRQAPGKERELVAAISDSGDNTYYADSVKGRFTISRDNAKKTVYLQMNSVKPEDTAVYYCNSQVDYWSNPWIYRKYDYWGQGTQVTVSS”, “high polyreactivity”.

As to “QVQLVESGGGLVQAGGSLRLSCAASGIIIITYAMGWYRQAPGKERELVAVISFSGGGTYADSVKGRFTISRDNAKNTVYLQMNSLKPEVTAVYYCAKYWLSALTLEDDYCGQGTQVTVSS”, the “polyreactivity (PSR sort gate)” value is listed as “low polyreactivity”. As to “QVQLVESGGGLVQAGGSLRLSCAASGIIIQRNAMGWYRQAPGKERELVAAISIGGGSTYADSVKGRFTISRDNAMNTVYLQMNSLKPEDTAVYYCAADYSGASVLMDYWGQGTQVTVSS”, the “polyreactivity (PSR sort gate)” value is on record as “low polyreactivity”. To “QVQLVESGGGLVQAGGSLRLSCAASGIIIRYYAMGWYRQAPGKERELVAAISTSGGRTYYADSVKGRFTISRDNAKNPVYLQMNSLKPEDTAVYYCAARPGSWYPSVPSYNYWGQGTQVTVSW” belongs “low polyreactivity”; to “QVQLVESGGGLVQAGGSLRLSCAASGIIIRYYGMGWYRQAPGKERELVARIRWTGGSTYYADSVKGRFTISRDNAKNTVYLQMNSLKPEDTAVYYCNADPWWRFDYWGQGTQVTVSS”, “low polyreactivity”; to “QVQLVESGGGLVQAGGSLRLSCAASGIIITYYTMGWYRQAPGKERELVAAIRWRGGSTYYADSVKGRFTISRDNAKNTVYLQMNSLKPEDTAVYYCNARSAFRSCGRDFLFDYWGQGTQVTGSS”, “high polyreactivity”. Consider “QVQLVESGGGLVQAGGSLRLSCAASGIIIYDYAMGWYRHAPGKERELVAAISRSGGSTYYADSVKGRFTISRDNAKYTVYLQMNSLKPDDTAVYYCNADEVVWGYNYWGQGTQVTVSS”, for which the “polyreactivity (PSR sort gate)” value was “low polyreactivity”.

For the sequence “QVQLVESGGGLVQAGGSLRLSCAASGIILDTYDMGWYRQAPGKERELVAVISWRGRTYYADSVKGRFTISRDNAKNTVYLQMNSLKPEDTAVYYCAAYSYRSVRWGWTSYDYWGQGTQVTVSS”, the “polyreactivity (PSR sort gate)” value is “high polyreactivity”. For the sequence “QVQLVESGGGLVQAGGSLRLSCAASGIILKFYAMGWYRQAPGKERELVAAISRGGRTNYADSVKGRFTISRDNANNTVYLQMNSLKPEDTAVYYCAAKSYTYYRNYDYWGQGTQVTVSA”, the “polyreactivity (PSR sort gate)” value is “high polyreactivity”. Regarding “QVQLVESGGGLVQAGGSLRLSCAASGIILLFYVMGWYRQAPGKERELVASINGRSARTYYADSVKGRFTISRDNAKNTVYLQMNSLKPEDTAVYYCAAGYRYAGNGQIANTGGYYWGQGTQVTVSS”, the “polyreactivity (PSR sort gate)” value is “low polyreactivity”. “QVQLVESGGGLVQAGGSLRLSCAASGIILLRYTMGWYRQAPGKERELVAAISRSAGRTYYADSVKGRFTISRDNAKNTVYLQMNSLKPEDTAVYYCAAAFVSVRKRYGYWGHGTQVTVSS”: the “polyreactivity (PSR sort gate)” value is “high polyreactivity”.
